Results: the supplement of paper PMC10567573

B1: FBF1 (parent)
chain: FGDSPKAEKRQIGDQEGPRPARST

Variants of: B1
Test: protein stability index of a GFP-peptide fusion (GPS, HEK-293T) (PSI 1-6); higher = more stable
Settings: c terminus: a fixed tail appended
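Also: lentivirally expressed fusions sorted by FACS into six bins by GFP to DsRed ratio, PSI derived from sequencing read proportions per bin multiplied by bin number.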

Protein stability index: each site, then its substitutions
G17: R 5.1 | W 4.17 | F 4.57 | P 5.54 | D 5.24 | L 4.77
Q11: K 4.86 | E 5.33 | H 5.16 | L 4.7 | A 5.6 | V 5.08 | S 5.29 | T 5 | I 4.61 | C 5.06 | W 3.76 | G 5.34 | N 5.38 | D 5.29 | Y 4.45 | M 5.22 | F 3.59 | P 5.25
P20: G 3.96 | A 5.25 | E 5.58 | D 5.07 | H 4.95 | F 4.57
D14: W 4 | T 5 | Y 4.54 | C 4.7 | A 4.87 | Q 4.42 | F 4.65 | P 5.09 | N 5.15 | K 4.5 | M 4.1 | I 4.38 | E 5.03 | S 4.84 | R 4.82 | L 4.68 | G 4.71 | V 4.72 | H 5
E16: M 4.57 | A 4.55 | Y 4.14 | W 3.48 | L 4.66 | D 5.75 | H 4.21 | P 5.09 | C 4.79 | N 4.98 | R 5.02 | T 5.03 | S 5.27 | F 4.55 | I 4.83 | V 4.99 | K 4.81 | Q 5.19 | G 3.41
I12: N 5.5 | P 5.12 | Q 5.5 | G 5.03 | F 4.47 | A 4.73 | D 4.89 | M 5.04 | S 5.47 | L 4.78 | V 5.4 | T 4.32 | R 5.17 | Y 4.24 | C 2.83 | E 5.27
